# Target: the molecule itself
# Test: SEC
protein,measurement,value
full-length APOBEC3B (enzyme) not shown,stoichiometry N,4

# Reference: paper PMC5714209 (Nucleic Acids Research, 2017)
